Measurements published in the Human Domainome abundance scans (Beltran et al. 2025).
± gives the uncertainty stated by the source.

B1: POU domain, class 3, transcription factor 2, residues 356 to 411; numbered along this chain, P20265 (parent)
chain: KKRTSIEVSVKGALESHFLKCPKPSAQEITSLADSLQLEKEVVRVWFCNRRQKEKR

Variants of: B1
Test: abundance fitness (aPCA) (normalised: wild type 0, dead -1); higher = more abundant; growth selection in yeast, the domain comes from the species named
Conditions: Homo sapiens

Variant | abundance fitness
KKRTSIEVSVKGALESHFLKCPKPSAQEITSLADSLQIEKEVVRVWFCNRRQKEKR | -0.191 ± 0.14
KKRTSIEVSVKGALESHFLKCPKPSAQEITSLADSLQEEKEVVRVWFCNRRQKEKR | -0.696 ± 0.14
KKRTSIEVSVKGALESHFLKCPKPSAQEITSLADSLQAEKEVVRVWFCNRRQKEKR | -0.713 ± 0.11
KKRTSIEVSVKGALESHFLKCPKPSAQEITSLADSLQSEKEVVRVWFCNRRQKEKR | -0.924 ± 0.13
KKRTSIEVSVKGALESHFLKCPKPSAQEITSLADSLQKEKEVVRVWFCNRRQKEKR | -0.927 ± 0.17
KKRTSIEVSVKGALESHFLKCPKPSAQEITSLADSLQVEKEVVRVWFCNRRQKEKR | -0.119 ± 0.074
KKRTSIEVSVKGALESHFLKCPKPSAQEITSLADSLQTEKEVVRVWFCNRRQKEKR | -0.26 ± 0.096
KKRTSIEVSVKGALESHFLKCPKPSAQEITSLADSLQPEKEVVRVWFCNRRQKEKR | -0.969 ± 0.17
KKRTSIEVSVKGALESHFLKCPKPSAQEITSLADSLQQEKEVVRVWFCNRRQKEKR | -0.519 ± 0.12
KKRTSIEVSVKGALESHFLKCPKPSAQEITSLADSLQGEKEVVRVWFCNRRQKEKR | -0.871 ± 0.076
KKRTSIEVSVKGALESHFLKCPKPSAQEITSLADSLQYEKEVVRVWFCNRRQKEKR | -0.827 ± 0.17
KKRTSIEVSVKGALESHFLKCPKPSAQEITSLADSLQFEKEVVRVWFCNRRQKEKR | -0.788 ± 0.24
KKRTSIEVSVKGALESHFLKCPKPSAQEITSLADSLQWEKEVVRVWFCNRRQKEKR | -0.804 ± 0.1
KKRTSIEVSVKGALESHFLKCPKPSAQEITSLADSLQDEKEVVRVWFCNRRQKEKR | -0.983 ± 0.19
KKRTSIEVSVKGALESHFLKCPKPSAQEITSLADSLQNEKEVVRVWFCNRRQKEKR | -0.964 ± 0.23
KKRTSIEVSVKGALESHFLKCPKPSAQEITSLADSLQLEGEVVRVWFCNRRQKEKR | -0.085 ± 0.078
KKRTSIEVSVKGALESHFLKCPKPSAQEITSLADSLQLEREVVRVWFCNRRQKEKR | 0.017 ± 0.066
KKRTSIEVSVKGALESHFLKCPKPSAQEITSLADSLQLESEVVRVWFCNRRQKEKR | -0.036 ± 0.085
KKRTSIEVSVKGALESHFLKCPKPSAQEITSLADSLQLEWEVVRVWFCNRRQKEKR | -0.178 ± 0.1
KKRTSIEVSVKGALESHFLKCPKPSAQEITSLADSLQLEMEVVRVWFCNRRQKEKR | -0.013 ± 0.17
KKRTSIEVSVKGALESHFLKCPKPSAQEITSLADSLQLECEVVRVWFCNRRQKEKR | -0.153 ± 0.095
KKRTSIEVSVKGALESHFLKCPKPSAQEITSLADSLQLEFEVVRVWFCNRRQKEKR | -0.004 ± 0.13
KKRTSIEVSVKGALESHFLKCPKPSAQEITSLADSLQLEEEVVRVWFCNRRQKEKR | 0.096 ± 0.12
KKRTSIEVSVKGALESHFLKCPKPSAQEITSLADSLQLEPEVVRVWFCNRRQKEKR | -0.027 ± 0.12

Variant | abundance fitness
KKRTSIEVSVKGALESHFLKCPKPSAQEITSLADSLQLELEVVRVWFCNRRQKEKR | -0.147 ± 0.083
KKRTSIEVSVKGALESHFLKCPKPSAQEITSLADSLQLEHEVVRVWFCNRRQKEKR | 0.132 ± 0.21
KKRTSIEVSVKGALESHFLKCPKPSAQEITSLADSLQLEAEVVRVWFCNRRQKEKR | -0.017 ± 0.097
KKRTSIEVSVKGALESHFLKCPKPSAQEITSLADSLQLEQEVVRVWFCNRRQKEKR | 0.078 ± 0.12
KKRTSIEVSVKGALESHFLKCPKPSAQEITSLADSLQLENEVVRVWFCNRRQKEKR | 0.021 ± 0.19
KKRTSIEVSVKGALESHFLKCPKPSAQEITSLADSLQLEDEVVRVWFCNRRQKEKR | -0.344 ± 0.16
KKRTSIEVSVKGALESHFLKCPKPSAQEITSLADSLQLEVEVVRVWFCNRRQKEKR | 0.007 ± 0.11
KKRTSIEVSVKGALESHFLKCPKPSAQEITSLADSLDLEKEVVRVWFCNRRQKEKR | -0.192 ± 0.14
KKRTSIEVSVKGALESHFLKCPKPSAQEITSLADSLWLEKEVVRVWFCNRRQKEKR | -0.394 ± 0.12
KKRTSIEVSVKGALESHFLKCPKPSAQEITSLADSLVLEKEVVRVWFCNRRQKEKR | -0.394 ± 0.073
KKRTSIEVSVKGALESHFLKCPKPSAQEITSLADSLCLEKEVVRVWFCNRRQKEKR | 0.087 ± 0.14
KKRTSIEVSVKGALESHFLKCPKPSAQEITSLADSLSLEKEVVRVWFCNRRQKEKR | -0.032 ± 0.073
KKRTSIEVSVKGALESHFLKCPKPSAQEITSLADSLTLEKEVVRVWFCNRRQKEKR | -0.316 ± 0.11
KKRTSIEVSVKGALESHFLKCPKPSAQEITSLADSLILEKEVVRVWFCNRRQKEKR | -0.63 ± 0.13
KKRTSIEVSVKGALESHFLKCPKPSAQEITSLADSLPLEKEVVRVWFCNRRQKEKR | -0.916 ± 0.15
KKRTSIEVSVKGALESHFLKCPKPSAQEITSLADSLYLEKEVVRVWFCNRRQKEKR | -0.353 ± 0.14
KKRTSIEVSVKGALESHFLKCPKPSAQEITSLADSLNLEKEVVRVWFCNRRQKEKR | -0.077 ± 0.18
KKRTSIEVSVKGALESHFLKCPKPSAQEITSLADSLFLEKEVVRVWFCNRRQKEKR | -0.183 ± 0.12
KKRTSIEVSVKGALESHFLKCPKPSAQEITSLADSLMLEKEVVRVWFCNRRQKEKR | -0.151 ± 0.1
KKRTSIEVSVKGALESHFLKCPKPSAQEITSLADSLLLEKEVVRVWFCNRRQKEKR | -0.245 ± 0.07
KKRTSIEVSVKGALESHFLKCPKPSAQEITSLADSLALEKEVVRVWFCNRRQKEKR | -0.054 ± 0.071
KKRTSIEVSVKGALESHFLKCPKPSAQEITSLADSLKLEKEVVRVWFCNRRQKEKR | -0.064 ± 0.1
KKRTSIEVSVKGALESHFLKCPKPSAQEITSLADSLRLEKEVVRVWFCNRRQKEKR | -0.138 ± 0.074
KKRTSIEVSVKGALESHFLKCPKPSAQEITSLADSLQLEKECVRVWFCNRRQKEKR | -0.01 ± 0.2

Variant | abundance fitness
KKRTSIEVSVKGALESHFLKCPKPSAQEITSLADSLQLEKENVRVWFCNRRQKEKR | -0.309 ± 0.19
KKRTSIEVSVKGALESHFLKCPKPSAQEITSLADSLQLEKEFVRVWFCNRRQKEKR | -0.042 ± 0.15
KKRTSIEVSVKGALESHFLKCPKPSAQEITSLADSLQLEKEKVRVWFCNRRQKEKR | -0.116 ± 0.14
KKRTSIEVSVKGALESHFLKCPKPSAQEITSLADSLQLEKEQVRVWFCNRRQKEKR | -0.136 ± 0.16
KKRTSIEVSVKGALESHFLKCPKPSAQEITSLADSLQLEKEHVRVWFCNRRQKEKR | 0.081 ± 0.22
KKRTSIEVSVKGALESHFLKCPKPSAQEITSLADSLQLEKEAVRVWFCNRRQKEKR | -0.089 ± 0.083
KKRTSIEVSVKGALESHFLKCPKPSAQEITSLADSLQLEKEPVRVWFCNRRQKEKR | -0.869 ± 0.23
KKRTSIEVSVKGALESHFLKCPKPSAQEITSLADSLQLEKEGVRVWFCNRRQKEKR | -0.453 ± 0.08
KKRTSIEVSVKGALESHFLKCPKPSAQEITSLADSLQLEKEEVRVWFCNRRQKEKR | 0.01 ± 0.096
KKRTSIEVSVKGALESHFLKCPKPSAQEITSLADSLQLEKEDVRVWFCNRRQKEKR | 0.051 ± 0.19
KKRTSIEVSVKGALESHFLKCPKPSAQEITSLADSLQLEKEMVRVWFCNRRQKEKR | -0.299 ± 0.11
KKRTSIEVSVKGALESHFLKCPKPSAQEITSLADSLQLEKEIVRVWFCNRRQKEKR | -0.204 ± 0.11
KKRTSIEVSVKGALESHFLKCPKPSAQEITSLADSLQLEKKVVRVWFCNRRQKEKR | -0.446 ± 0.17
KKRTSIEVSVKGALESHFLKCPKPSAQEITSLADSLQLEKFVVRVWFCNRRQKEKR | -0.723 ± 0.22
KKRTSIEVSVKGALESHFLKCPKPSAQEITSLADSLQLEKPVVRVWFCNRRQKEKR | -0.697 ± 0.14
KKRTSIEVSVKGALESHFLKCPKPSAQEITSLADSLQLEKRVVRVWFCNRRQKEKR | -0.337 ± 0.078
KKRTSIEVSVKGALESHFLKCPKPSAQEITSLADSLQLEKMVVRVWFCNRRQKEKR | -0.791 ± 0.2
KKRTSIEVSVKGALESHFLKCPKPSAQEITSLADSLQLEKCVVRVWFCNRRQKEKR | -0.558 ± 0.12
KKRTSIEVSVKGALESHFLKCPKPSAQEITSLADSLQLEKWVVRVWFCNRRQKEKR | -0.494 ± 0.11
KKRTSIEVSVKGALESHFLKCPKPSAQEITSLADSLQLEKYVVRVWFCNRRQKEKR | -0.489 ± 0.18
KKRTSIEVSVKGALESHFLKCPKPSAQEITSLADSLQLEKTVVRVWFCNRRQKEKR | -0.303 ± 0.13
KKRTSIEVSVKGALESHFLKCPKPSAQEITSLADSLQLEKNVVRVWFCNRRQKEKR | -0.069 ± 0.18
KKRTSIEVSVKGALESHFLKCPKPSAQEITSLADSLQLEKHVVRVWFCNRRQKEKR | -0.168 ± 0.19
KKRTSIEVSVKGALESHFLKCPKPSAQEITSLADSLQLEKDVVRVWFCNRRQKEKR | -0.114 ± 0.14

Variant | abundance fitness
KKRTSIEVSVKGALESHFLKCPKPSAQEITSLADSLQLEKVVVRVWFCNRRQKEKR | -0.596 ± 0.1
KKRTSIEVSVKGALESHFLKCPKPSAQEITSLADSLQLEKAVVRVWFCNRRQKEKR | -0.238 ± 0.12
KKRTSIEVSVKGALESHFLKCPKPSAQEITSLADSLQLEKSVVRVWFCNRRQKEKR | -0.256 ± 0.086
KKRTSIEVSVKGALESHFLKCPKPSAQEITSLADSLQLEKLVVRVWFCNRRQKEKR | -0.881 ± 0.1
KKRTSIEVSVKGALESHFLKCPKPSAQEITSLADSLQLEKQVVRVWFCNRRQKEKR | -0.26 ± 0.14
KKRTSIEVSVKGALESHFLKCPKPSAQEITSLADSLQLEKGVVRVWFCNRRQKEKR | -0.408 ± 0.085
KKRTSIEVSVKGALESHFLKCPKPSAQEITSLADSLQLAKEVVRVWFCNRRQKEKR | -0.224 ± 0.11
KKRTSIEVSVKGALESHFLKCPKPSAQEITSLADSLQLHKEVVRVWFCNRRQKEKR | 0.036 ± 0.12
KKRTSIEVSVKGALESHFLKCPKPSAQEITSLADSLQLCKEVVRVWFCNRRQKEKR | -0.133 ± 0.093
KKRTSIEVSVKGALESHFLKCPKPSAQEITSLADSLQLSKEVVRVWFCNRRQKEKR | -0.039 ± 0.076
KKRTSIEVSVKGALESHFLKCPKPSAQEITSLADSLQLNKEVVRVWFCNRRQKEKR | -0.217 ± 0.13
KKRTSIEVSVKGALESHFLKCPKPSAQEITSLADSLQLTKEVVRVWFCNRRQKEKR | -0.159 ± 0.12
KKRTSIEVSVKGALESHFLKCPKPSAQEITSLADSLQLFKEVVRVWFCNRRQKEKR | -1.01 ± 0.26
KKRTSIEVSVKGALESHFLKCPKPSAQEITSLADSLQLKKEVVRVWFCNRRQKEKR | -0.121 ± 0.13
KKRTSIEVSVKGALESHFLKCPKPSAQEITSLADSLQLPKEVVRVWFCNRRQKEKR | -0.244 ± 0.13
KKRTSIEVSVKGALESHFLKCPKPSAQEITSLADSLQLGKEVVRVWFCNRRQKEKR | -0.324 ± 0.088
KKRTSIEVSVKGALESHFLKCPKPSAQEITSLADSLQLMKEVVRVWFCNRRQKEKR | -0.941 ± 0.16
KKRTSIEVSVKGALESHFLKCPKPSAQEITSLADSLQLLKEVVRVWFCNRRQKEKR | -0.847 ± 0.11
KKRTSIEVSVKGALESHFLKCPKPSAQEITSLADSLQLYKEVVRVWFCNRRQKEKR | -0.653 ± 0.16
KKRTSIEVSVKGALESHFLKCPKPSAQEITSLADSLQLWKEVVRVWFCNRRQKEKR | -0.943 ± 0.17
KKRTSIEVSVKGALESHFLKCPKPSAQEITSLADSLQLRKEVVRVWFCNRRQKEKR | -0.404 ± 0.083
KKRTSIEVSVKGALESHFLKCPKPSAQEITSLADSLQLIKEVVRVWFCNRRQKEKR | -0.982 ± 0.37
